± gives the standard error.
B1: library; numbered along this chain (parent)
chain: MATDAALRRLLRLHRTEIAVAVDSAFPLLHALADHDVVPEDKFQETLHLKEKEGCPQAFHALLSWLLTQDSTAILDFWRVLFKDYNLERYGRLQPILDSFPKDVDLSQPRKGRKPPAVPKALVPPPRLPTKRKASEEARAAAPAALTPRGTASPGSQLKAKPPKKPESSAEQQRLPLGNGIQTMSASVQRAVAMSSGDVPGARGAVEGILIQQVFESGGSKKCIQVGGEFYTPSKFEDSGSGKNKARSSSGPKPLVRAKGAQGAAPGGGEARLGQQGSVPAPLALPSDPQLHQKNEDECAVCRDGGELICCDGCPRAFHLACLSPPLREIPSGTWRCSSCLQATVQEVQPRAEEPRPQEPPVETPLPPGLRSAGEEVRGPPGEPLAGMDTTLVYKHLPAPPSAAPLPGLDSSALHPLLCVGPEGQQNLAPGARCGVCGDGTDVLRCTHCAAAFHWRCHFPAGTSRPGTGLRCRSCSGDVTPAPVEGVLAPSPARLAPGPAKDDTASHEPALHRDDLESLLSEHTFDGILQWAIQSMARPAAPFPS

Variants of: B1
Experiment: AIRE transcriptional activation functional score (insulin promoter-GFP; nonsense median 0, synonymous median 1) (normalised score); higher = higher AIRE activity (more reporter activation)
Conditions: with insulin promoter-GFP reporter in HEK293
How it was run: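 Codon-optimized AIRE NNN-codon libraries (three regions) were integrated by Bxb1 recombinase into Flp-In T-REx HEK293 landing-pad cells carrying an insulin core promoter-GFP reporter. Integrants (mCherry+, BFP−) sorted at day 7 were expanded 7 days; top 10% GFP and unselected integrant populations were tile-sequenced. Functional score is select versus non-select variant enrichment, wild-type subtracted. Variants needed 10 counts per million in non-select; scores were rescaled to nonsense median 0 and synonymous median 1, then averaged over biological replicates.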

Variant	AIRE transcriptional activation functional score
Y394L	1.07 ± 0.27
Y394N	0.966 ± 0.38
Y394T	0.126 ± 0.099
Y394W	0.755 ± 0.1
Y394E	0.49 ± 0.066
Y394F	0.973 ± 0.035
Y394R	0.595 ± 0.12
Y394Q	-0.333 ± 0.14
Y394K	0.301 ± 0.18
Y394I	0.972 ± 0.15
Y394V	0.926 ± 0.18
Y394D	0.711 ± 0.27
Y394S	0.848 ± 0.26
Y394C	0.576 ± 0.24
Y394M	1.13 ± 0.056
K395E	0.701 ± 0.21
K395H	0.628 ± 0.22
K395S	0.558 ± 0.28
K395Q	1.35 ± 0.054
K395W	0.234 ± 0.056
K395D	0.353 ± 0.32
K395L	1.38 ± 0.15
K395F	0.828 ± 0.12
K395I	0.422 ± 0.1

Variant	AIRE transcriptional activation functional score
K395R	-0.166 ± 0.49
K395V	1.34 ± 0.17
K395A	0.786 ± 0.12
K395Y	1.47 ± 0.13
K395C	0.49 ± 0.85
K395N	0.081 ± 0.31
K395T	0.901 ± 0.52
K395M	2.5 ± 0.11
M388T	0.897 ± 0.22
M388E	0.756 ± 0.16
M388I	0.924 ± 0.41
M388D	0.8 ± 0.26
M388C	0.979 ± 0.082
M388K	1.05 ± 0.31
M388W	1.46 ± 0.11
M388A	0.871 ± 0.3
M388N	0.557 ± 0.46
M388G	0.832 ± 0.22
M388V	1.49 ± 0.45
M388F	1.15 ± 0.099
M388L	1.17 ± 0.24
M388R	0.983 ± 0.27
M388S	0.824 ± 0.24
M388P	1.14 ± 0.17

Variant	AIRE transcriptional activation functional score
M388Q	0.232 ± 0.12
M388H	1.2 ± 0.39
M388Y	-0.0355 ± 0.024
D389L	0.218 ± 0.2
D389Q	-0.15 ± 0.18
D389W	0.0908 ± 0.069
D389E	0.728 ± 0.51
D389H	1.2 ± 0.07
D389Y	0.964 ± 0.08
D389T	1.23 ± 0.044
D389S	1.24 ± 0.1
D389F	0.472 ± 0.1
D389M	-0.143 ± 0.096
D389K	0.278 ± 0.3
D389A	1.04 ± 0.42
D389R	0.387 ± 0.22
D389N	1.22 ± 0.048
D389I	-0.197 ± 0.2
D389V	0.292 ± 0.13
D389P	0.951 ± 0.45
D389G	0.913 ± 0.38
D389C	0.869 ± 0.051
T391Y	1.45 ± 0.44
T391V	1.16 ± 0.17

Variant	AIRE transcriptional activation functional score
T391P	0.882 ± 0.38
T391W	1.58 ± 0.076
T391I	1.29 ± 0.07
T391C	0.542 ± 0.084
T391Q	0.725 ± 0.055
T391D	0.889 ± 0.36
T391S	0.957 ± 0.28
T391M	1.02 ± 0.17
T391L	1.06 ± 0.41
T391K	0.54 ± 0.28
T391A	1.09 ± 0.15
T391F	1.41 ± 0.22
T391H	1.17 ± 0.07
T391E	0.539 ± 0.13
T391G	0.941 ± 0.15
T391R	1.15 ± 0.23
L385A	0.341 ± 0.33
L385D	-0.182 ± 0.081
L385I	0.603 ± 0.3
L385C	1.42 ± 0.073
L385V	0.955 ± 0.15
L385T	0.874 ± 0.097
L385H	1.13 ± 0.079
L385E	1.15 ± 0.1

Variant	AIRE transcriptional activation functional score
L385F	0.899 ± 0.2
L385N	0.689 ± 0.048
L385Q	1.24 ± 0.032
L385K	0.616 ± 0.16
L385R	0.699 ± 0.49
L385Y	1.34 ± 0.17
L385W	1.56 ± 0.041
L385S	0.77 ± 0.32
L385P	0.451 ± 0.065
L385G	1 ± 0.09
G387R	1.1 ± 0.41
G387F	1.52 ± 0.076
G387S	0.84 ± 0.18
G387V	1.5 ± 0.2
G387Y	1.72 ± 0.1
G387W	1.52 ± 0.051
G387A	1.19 ± 0.31
G387P	0.291 ± 0.23
G387I	1.59 ± 0.069
G387L	1.35 ± 0.061
G387C	0.799 ± 0.25
G387K	0.344 ± 0.13
G387T	1.22 ± 0.16
G379D	1.24 ± 0.21

Variant	AIRE transcriptional activation functional score
G379K	1.19 ± 0.07
G379P	0.992 ± 0.16
G379N	1.23 ± 0.044
G379T	0.911 ± 0.059
G379C	0.863 ± 0.31
G379A	0.877 ± 0.073
G379I	1.26 ± 0.061
G379V	0.691 ± 0.24
G379S	1.37 ± 0.097
G379W	1.23 ± 0.066
G379L	1.41 ± 0.33
G379R	0.719 ± 0.28
G379Y	1.47 ± 0.06
G379E	1 ± 0.054
R378G	0.98 ± 0.35
R378L	0.904 ± 0.25
R378M	0.0153 ± 0.2
R378C	0.601 ± 0.14
R378F	1.1 ± 0.15
R378A	0.851 ± 0.32
R378T	0.986 ± 0.46
R378D	0.631 ± 0.13
R378Y	0.657 ± 0.28
R378K	1.17 ± 0.2

Variant	AIRE transcriptional activation functional score
R378I	0.795 ± 0.28
R378S	0.975 ± 0.23
R378Q	0.825 ± 0.16
R378V	0.869 ± 0.27
R378N	1.28 ± 0.11
R378H	0.92 ± 0.31
R378P	0.932 ± 0.23
R378E	0.928 ± 0.45
P384A	0.99 ± 0.33
P384K	0.962 ± 0.21
P384R	1.19 ± 0.27
P384V	0.849 ± 0.1
P384L	1.14 ± 0.26
P384H	1.05 ± 0.42
P384Q	1.01 ± 0.083
P384W	1.61 ± 0.039
P384I	0.998 ± 0.15
P384S	0.379 ± 0.29
P384T	1.17 ± 0.12
P384N	0.179 ± 0.064
P384G	1.62 ± 0.15
P384E	1.39 ± 0.04
P384M	1.35 ± 0.079

— the supplement of paper PMC12667976
